Source: paper PMC4226653 (Journal of molecular biology, 2012)

What was measured:
[1] = target: yNup82^NTD•yNup159^T pair (S. cerevisiae, UniProt P40368 1-452; P40477 1425-1460); assay: SEC-MALS
[2] = target: T1, human Nup88 N-terminal domain (residues 1–493) (human, UniProt Q99567 1-493); assay: SEC-MALS
T1 sequence (looked up): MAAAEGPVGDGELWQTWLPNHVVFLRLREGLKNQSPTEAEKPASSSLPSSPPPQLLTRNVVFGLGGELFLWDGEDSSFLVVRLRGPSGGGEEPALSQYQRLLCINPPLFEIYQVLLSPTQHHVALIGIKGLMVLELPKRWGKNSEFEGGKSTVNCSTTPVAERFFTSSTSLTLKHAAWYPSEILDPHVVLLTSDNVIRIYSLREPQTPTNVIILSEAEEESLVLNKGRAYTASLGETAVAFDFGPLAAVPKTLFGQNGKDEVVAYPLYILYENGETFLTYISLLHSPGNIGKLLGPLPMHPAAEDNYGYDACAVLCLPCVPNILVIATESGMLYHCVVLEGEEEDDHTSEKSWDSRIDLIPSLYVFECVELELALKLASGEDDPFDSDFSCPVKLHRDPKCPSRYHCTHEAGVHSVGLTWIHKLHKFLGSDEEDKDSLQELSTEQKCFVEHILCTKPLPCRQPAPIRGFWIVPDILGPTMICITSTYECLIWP

Sequence of yNup82^NTD•yNup159^T pair (P40368 1-452, chain 1 of 2): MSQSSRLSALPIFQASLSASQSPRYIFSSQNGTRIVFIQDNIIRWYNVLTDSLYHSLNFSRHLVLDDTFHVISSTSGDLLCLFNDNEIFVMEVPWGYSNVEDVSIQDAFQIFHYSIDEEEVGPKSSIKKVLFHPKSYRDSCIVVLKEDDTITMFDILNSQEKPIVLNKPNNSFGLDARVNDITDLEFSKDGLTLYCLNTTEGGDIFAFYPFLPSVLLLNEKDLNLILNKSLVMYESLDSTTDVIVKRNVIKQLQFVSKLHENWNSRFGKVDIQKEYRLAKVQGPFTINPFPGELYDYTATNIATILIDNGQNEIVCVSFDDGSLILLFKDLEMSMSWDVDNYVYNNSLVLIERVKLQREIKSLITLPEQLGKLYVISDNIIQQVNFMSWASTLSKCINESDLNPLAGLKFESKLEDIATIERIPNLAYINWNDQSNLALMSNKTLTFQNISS
Sequence of yNup82^NTD•yNup159^T pair (P40477 1425-1460, chain 2 of 2): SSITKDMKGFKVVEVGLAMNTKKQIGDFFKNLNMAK

B1: mouse Nup98 autoproteolytic domain (residues 732–880) (domain or fragment, UniProt Q6PFD9 732-880, looked up)
chain: AGIVLTKVGYYTIPSMDDLAKITNEKGECIVSDFTIGRKGYGSIYFEGDVNLTNLNLDDIVHIRRKEVIVYVDDNQKPPVGEGLNRKAEVTLDGVWPTDKTSRCLIKSPDRLADINYEGRLEAVSRKQGAQFKEYRPETGSWVFKVSHF
[1]
  stoichiometry N: 1
[2]
  stoichiometry N: 1
